41 sequences from the nanobody polyreactivity screen of Harvey et al. (2022) can be followed below.

The data set can be described thus: yeast display, Sf9 membrane polyspecificity reagent, FACS + sequencing; frameworks hold sequencing errors. The method, boiled down:
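Galactose-induced (36–48 hours) yeast carrying a synthetic nanobody display library were exposed to 10% biotinylated, detergent-solubilized Sf9 membrane reagent at 4 °C for 1 hour. FACS followed streptavidin microbead enrichment, using low and high (top ~1%) gates for expression (anti-HA) and reagent binding (streptavidin). Colony PCR, MiSeq 2 × 250 sequencing and CDR-length filtering followed. Labels for polyreactivity reflect the gate of origin.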
In the case of “QVQLVESGGGLVQAGGTLRLSCAASGFIFGINAMGWYRQAPGQERELVAAIATGDRTNYADSVTGRFTISRDNAKNTVYLQMNSLKPEHTAVYYCAAGVHWDRGDYWGQGTQVTVST”, the “polyreactivity (PSR sort gate)” value is “low polyreactivity”.
For “QVQLVESGGGLVQAGGTLRLSCAASGFIINRYAMGWYRQPPGKERELVAAISWSGGRTYYADSVKGRFTISRDNAKNTVSLQMNSLKPEDTAVYYCAADSYTSLDGRDYWGQGTQVTVSS”, the “polyreactivity (PSR sort gate)” value is reported as “high polyreactivity”.
On to “QVQLVESGGGLVQAGGTLRLSCAASGFIISRNAMGWYRQAPRKERELVAAITWPGGTTYYADSVKGRFTISRDNAKNTVYLQMISLKPEDTAVYYSAADEYGPHTFSPEYDSWGQGTQVTVSS”, for which the “polyreactivity (PSR sort gate)” value is given as “low polyreactivity”.
For “QVQLVESGGGLVQAGGTLRLSCAASGFTFSINAMGWSRQAPGKERELVAGISWSGGITYYADSVKGRFTISRDNAKNTVYLQMNSLKPEDTAVYYCNTDYGLTTPVVWDDYWGQGTQVTVSS”, the “polyreactivity (PSR sort gate)” value is “low polyreactivity”.
Turning to “QVQLVESGGGLVQAGGTLRLSCAASGGIFGGYAMGWYRQAPGTEGELVAVITSGGSTYYADSVKGRFTISRDNAKNTVYLQMNSLKPEDTAVYYCAADGHSYSYSTYDYWGQGTQVTVSS”, the “polyreactivity (PSR sort gate)” value is reported as “low polyreactivity”.
Turning to “QVQLVESGGGLVQAGGTLRLSCAASGIIFGVYAMGWYRQAPGKERELVAAIDGNGSSTYYADSVKGRFTISRDTAKNTVYLQMNSLKPEDTAVYYCPAGYWSYLYYWYDFDYWGQGTQVTVSS”, the “polyreactivity (PSR sort gate)” value was “low polyreactivity”.
As for “QVQLVESGGGLVQAGGTLRLSCAASGITFDYNAMGWYRQAPGKERELVATISDTGSTNYADSVKGRFTISRDNAKNTVYLQMNSLKPEDTAVYYCAADGLGDYHPKWEYQEYDYWGQGTQVTVSS”, the “polyreactivity (PSR sort gate)” value is “low polyreactivity”.
The value for “QVQLVESGGGLVQAGGTLRLSCAASGITFTGNDMGWYRQAPGKERELVAAISNRGGSTYYADSVKGRFTISRDNAKNTVYLQMNSLKPEDTAVYYCRTSTPRRVSGNYWGQGTQVTVSS” was “high polyreactivity”.
For “QVQLVESGGGLVQAGGTLRLSCAASGLISYFYGMGWYRQAPGKERELVAGIDTGSSTNYADSVKGRFTISRDNAKNTVYLQMNSLKPEDTAVYYCAADSVSKYGSDYWGQGTQVTVSS”, the “polyreactivity (PSR sort gate)” value is “low polyreactivity”.
Turning to “QVQLVESGGGLVQAGGTLRLSCAASGLTFGYNAMVWYRQAPRKERELVATISYSGGRTYYADSVKGRFTISRDTAKNTVYLQMNSLKPEDTAVYSCAARRASGPYGFGYWGQGTQVTVSS”, the “polyreactivity (PSR sort gate)” value was “high polyreactivity”.
As to “QVQLVESGGGLVQAGGTLRLSCAASGLTFKSYDMGWYRHAPGKERELVAAITSGVSTHYADSVKGRFTISRDNAKNTVYLQMNSLKPEDTAVYYCAADYSWYDPYWIMDYWGQGTQVTVSS”, the “polyreactivity (PSR sort gate)” value was “low polyreactivity”.
“QVQLVESGGGLVQAGGTLRLSCAASGNTFRYYAMGWYRQSPGKERELVARITGRAGSTYYADSVKGRFTISRDNAKKTVYLQMNSLKPEDTAVYYCAAEFYYGFDYWGQGTQVTVSS”: the “polyreactivity (PSR sort gate)” value is listed as “high polyreactivity”.
For “QVQLVESGGGLVQAGGTLRLSCAASGRIFPAYVMGWYRQAPGKERELVATIDNGGGTYYADSVKGRFTISRDNAKNTVYLQMNSLKPEDTAVYYCARDRHVRWGLKMDYWGQGTQVTVSS” the value was “low polyreactivity”; for “QVQLVESGGGLVQAGGTLRLSCAASGRIFPRNVLGWYRQAPGKEWELVAAISSRGTRTYYADSVKGRFTISRDNAKNTVYLQMNSLKPEDTPVYYCAADGPYEGYDDWGQGTQVTVSS”, “high polyreactivity”.
For “QVQLVESGGGLVQAGGTLRLSCAASGRTFSGYAMGWYRQAPGKERELVAAIDRGDGTNYADSVKGRFTISRDNAKNTVYLQMNSLKPEDTAVYYCAADYSYGSTSHTYTGFDYWGQGTQVTVSS”, the “polyreactivity (PSR sort gate)” value is reported as “low polyreactivity”.
On to “QVQLVESGGGLVQAGGTLRLSCAASGSIFGKNAMGWYRQARGKERELVAAITWSGGSTYYADSVKGRFTISRDNAKNTVSLQINSLKPEDTAVYYCNAVRVRVTSHRIRQLDYGYWGQGTQVTVSS”, for which the “polyreactivity (PSR sort gate)” value is “low polyreactivity”.
For the sequence “QVQLVESGGGLVQAGGTLRLSCAASGSIFRGNGMGWYRQAPGKERELVAAISRSGGRTYYADSVKGRFTFSRDNAKNTVYLQMNSLKPEDTAVYYCAAVPPYNYRFRVYYWGQGSQVTVSS”, the “polyreactivity (PSR sort gate)” value is “high polyreactivity”.
For the sequence “QVQLVESGGGLVQAGGTLRLSCAASGSIFRYYAMGWYRQAPGKERELVATITSTGGSTYYADSVKGRFTISRDNAKNTVYLQMNSLKPEDTAVYYCAARNKLYVTVRGYYLSGYWGQGTQVTVSS”, the “polyreactivity (PSR sort gate)” value is recorded as “high polyreactivity”.
As for “QVQLVESGGGLVQAGGTLRLSCAASGSIFRYYTMGWYRQAPGKERELVAAITWDGDSTYYADSVKGRFTISLDNAKNTVYLQMNSLKPEDTAVYYCNADDYGPGFDYWGQGTQVTVSS”, the “polyreactivity (PSR sort gate)” value was “low polyreactivity”.
Take “QVQLVESGGGLVQAGGTLRLSCAASGSILGGNAMGWYRQAPGKERELVAAITFSGGGTYYADSVKGRFTISRDNAKNTVYLQMNSLKPEDTAVYYCAADKDGYTYEFDYWGQGTQVTVSS”: the “polyreactivity (PSR sort gate)” value is “low polyreactivity”.
Turning to “QVQLVESGGGLVQAGGTLRLSCAASGSILTPNAMGWSRQAPGKERELVAAISDNAGSTYYADSVKGRFTISRDNAKNTVYLQMNSLKPEDTAVYYCAAEYWEYNLVYLVYYYSMDYWGQGTQVTVSS”, the “polyreactivity (PSR sort gate)” value was “high polyreactivity”.
The value for “QVQLVESGGGLVQAGGTLRLSCAASGSIVQSYAMGWYRQAPGKERELVAAITERGGSTYYADSVKGRFTISRDNAKNTVYLQMNSLKPEDTAVYYCAAKAVGLGKSWRGDDYWGQGTQVTVSS” was “low polyreactivity”; that for “QVQLVESGGGLVQAGGTLRLSCAASGSTFAANAMGWYRQAPGKERELVAAITSSGGSTYYADSVKGRFTISRDNAKNTVYLQMNSLKPEDTAVYYCNTDIERYVRIYDSWGQGTQVTVSS” was “low polyreactivity”; that for “QVQLVESGGGLVQAGGTLRLSCAASGSTFGVYAMGWYRQAPGKERELVAAIDNSGDDTYYADSVKGRFTISRDNAKNTVYLQMNSLKPEDTAVYYCAADFWDGRSTLNFWGQGTQVTVSS” was “high polyreactivity”.
In the case of “QVQLVESGGGLVQAGGTLRLSCAASGSTFVDYAMGWYRQAPGKERELVAGINGSGGSTYYADSVKGRFTISRDNAKNTVYLQMNSLKPEDTAVYYCAKDGSNRLALPAWDYNYWGQGTQVTVSS”, the “polyreactivity (PSR sort gate)” value is recorded as “low polyreactivity”.
In the case of “QVQLVESGGGLVQAGGTLRLSCAASGSTISYYTMGWYRQAPGKERELVAAISRSGTRTYYADSVKGRFTISRDNPKNTVYLQMNSLKPEDTAFFYCAARSPFYSYTPGYEYWGQGTQVTVSS”, the “polyreactivity (PSR sort gate)” value is “high polyreactivity”.
For “QVQLVESGGGLVQAGGTLRLSCAASGSTQWGYDMGWYRQATGKERELVAAISSSGSNTRYADSVKGRFTISRDNEKNTVYLQLNRLKPEDTAVYYCTARTYLRGKTDYGYDSWGQGTHVTVSS”, the “polyreactivity (PSR sort gate)” value is recorded as “high polyreactivity”.
For “QVQLVESGGGLVQAGGTLRLSCAASGSTYEVYAMGWYRQAPGTERELVAVITGNGGSTNYADSVKGRFTISRDNAKNTVYLQMNSLKPEDTAVYYCAADFYTFVRSDYWGQGTQVTVSS”, the “polyreactivity (PSR sort gate)” value is given as “low polyreactivity”.
For “QVQLVESGGGLVQAGGTLRLSCAASGYTFPLYAMGWYRQAPVKERELVADINIGGASTYYADSVKGRFTISRDNATNTVYLQMNSLKPEDTAVYDCAKEYYDGYFPTFDYDYFGQGTQVTVSS” the value was “low polyreactivity”.
The value for “QVQLVESGGGLVQAGGTLRLSCDASGFIFPGYAKGWSRNATGKQREFVAAISRSGGSTYYADSVKGRFTISRDNAKNTVYLQMNSLKPEDTAVYYCATRARGYTGYDYWGQGTQVTVSS” was “high polyreactivity”; that for “QVQLVESGGGLVQAGGTLRLSGAASGFIFPQYAMGWYRQAPGKERELVAAISTGGGSTYYADSVKGRFTISRDNAKNTVYLQMNSLKPEDTAVYYCNARPKYDSGHYYWGQGTQVTVSS” was “high polyreactivity”.
For “QVQLVESGGGLVQAGGTLRLSGAASGRTLRRYAMGWYRQAPGKARELVATISGRGGSTYYADSVKGRFTISRDNAKNTVYLQMNSLKPEDTAVYYCAADSVLSKYDYWGQGTQVTVSS” the value was “high polyreactivity”.
In the case of “QVQLVESGGGLVQAGGTLSLSCAATGRNLSYAMGWYRQAPGKERELVAAMNWSGGTTYYADSVKGRFTISRDNAKNTVYLQMNSLKQEDTAVYYCAARVRGTGYNSWGQGTQLTVSS”, the “polyreactivity (PSR sort gate)” value is on record as “high polyreactivity”.
“QVQLVESGGGLVQAGRILRLSCAASGIILGRYAMGWYRQAHGKERELVAAITASGGRTYYADSVKGRFTISRDNAKNTVYLQMNSLKPEDTAVYYCNTVYWGYKSHYDYWGQGTQVTVSS”: the “polyreactivity (PSR sort gate)” value is on record as “high polyreactivity”.
Consider “QVQLVESGGGLVQAGRSHRLSCAASGFTFFDNAMGWYRQAPGKERELVAAITWSDGSTYYADSVKGRFTISRDNAKNTVYLQMNSLKPEDTAVYYCNKRGWWDLRHDYWGQGTHVTVSS”, for which the “polyreactivity (PSR sort gate)” value was “low polyreactivity”.
For “QVQLVESGGGLVQAGRSLRLICAASGRISVFYTMGWYRQAPGKERELVAVIRTSGGRTNYADSVKGRFTISRDNAKNTVYLQMNSLKPEDTAVYYCAARVVRYGFKYYYWGQGTQVTVSS”, the “polyreactivity (PSR sort gate)” value is reported as “low polyreactivity”.
For “QVQLVESGGGLVQAGRSLRLICAASGSTFPSYAMGWYRQAPGNERELVAAINSGGGTNYADAVKGRFTISRDNAKNTVYLQMNSLKPEDTAVFYCAKSRYDYTKTEGGYWGQATQVTVSS” the value was “low polyreactivity”; for “QVQLVESGGGLVQAGRSLRLICAASGSTFYVNAMGWYRQAPGKEREFVAAIRWPGGSTYYADSVKWRFTISRDNAKNTFYVQMNSLKPEDTAVFYCAARIKYRYVWGQGTQVTVSS”, “low polyreactivity”.
For “QVQLVESGGGLVQAGRSLRLNCAASGLTFYKYAMGWYRQAPGKERELVAAISYRGGSTYYADSVKGRFTISRDNAKNTVSLQLNSLKPEVTAVYYCAAGYPYGGDYWGQGTQVTVSS”, the “polyreactivity (PSR sort gate)” value is listed as “high polyreactivity”.
With “QVQLVESGGGLVQAGRSLRLSCAASGFIFGHNAMGWSRQAPGKERELFAAIRSRGGSTYYADSVKGRFTISRDNAKNTVYLQMNSLKREDTAVYYCAADGAVVSSSRKFVYWGQGTQVTVSS”, the “polyreactivity (PSR sort gate)” value is reported as “low polyreactivity”.
For “QVQLVESGGGLVQAGRSLRLSCAASGFTFAYYAMGWYRQAPGKERELVAAISRGGTSTYYADSVKGRFTISRDNAKNTVYLQMNSLKPEDTAVYYCNAVKVGYSLYDYWGQGTQVTVSS” the value was “high polyreactivity”.
